According to article PMC5550728:

Target: mouse Cav1.3 α1 subunit expressed in HEK cells (mouse) (UniProt Q99246)
Sequence (Q99246 whole entry): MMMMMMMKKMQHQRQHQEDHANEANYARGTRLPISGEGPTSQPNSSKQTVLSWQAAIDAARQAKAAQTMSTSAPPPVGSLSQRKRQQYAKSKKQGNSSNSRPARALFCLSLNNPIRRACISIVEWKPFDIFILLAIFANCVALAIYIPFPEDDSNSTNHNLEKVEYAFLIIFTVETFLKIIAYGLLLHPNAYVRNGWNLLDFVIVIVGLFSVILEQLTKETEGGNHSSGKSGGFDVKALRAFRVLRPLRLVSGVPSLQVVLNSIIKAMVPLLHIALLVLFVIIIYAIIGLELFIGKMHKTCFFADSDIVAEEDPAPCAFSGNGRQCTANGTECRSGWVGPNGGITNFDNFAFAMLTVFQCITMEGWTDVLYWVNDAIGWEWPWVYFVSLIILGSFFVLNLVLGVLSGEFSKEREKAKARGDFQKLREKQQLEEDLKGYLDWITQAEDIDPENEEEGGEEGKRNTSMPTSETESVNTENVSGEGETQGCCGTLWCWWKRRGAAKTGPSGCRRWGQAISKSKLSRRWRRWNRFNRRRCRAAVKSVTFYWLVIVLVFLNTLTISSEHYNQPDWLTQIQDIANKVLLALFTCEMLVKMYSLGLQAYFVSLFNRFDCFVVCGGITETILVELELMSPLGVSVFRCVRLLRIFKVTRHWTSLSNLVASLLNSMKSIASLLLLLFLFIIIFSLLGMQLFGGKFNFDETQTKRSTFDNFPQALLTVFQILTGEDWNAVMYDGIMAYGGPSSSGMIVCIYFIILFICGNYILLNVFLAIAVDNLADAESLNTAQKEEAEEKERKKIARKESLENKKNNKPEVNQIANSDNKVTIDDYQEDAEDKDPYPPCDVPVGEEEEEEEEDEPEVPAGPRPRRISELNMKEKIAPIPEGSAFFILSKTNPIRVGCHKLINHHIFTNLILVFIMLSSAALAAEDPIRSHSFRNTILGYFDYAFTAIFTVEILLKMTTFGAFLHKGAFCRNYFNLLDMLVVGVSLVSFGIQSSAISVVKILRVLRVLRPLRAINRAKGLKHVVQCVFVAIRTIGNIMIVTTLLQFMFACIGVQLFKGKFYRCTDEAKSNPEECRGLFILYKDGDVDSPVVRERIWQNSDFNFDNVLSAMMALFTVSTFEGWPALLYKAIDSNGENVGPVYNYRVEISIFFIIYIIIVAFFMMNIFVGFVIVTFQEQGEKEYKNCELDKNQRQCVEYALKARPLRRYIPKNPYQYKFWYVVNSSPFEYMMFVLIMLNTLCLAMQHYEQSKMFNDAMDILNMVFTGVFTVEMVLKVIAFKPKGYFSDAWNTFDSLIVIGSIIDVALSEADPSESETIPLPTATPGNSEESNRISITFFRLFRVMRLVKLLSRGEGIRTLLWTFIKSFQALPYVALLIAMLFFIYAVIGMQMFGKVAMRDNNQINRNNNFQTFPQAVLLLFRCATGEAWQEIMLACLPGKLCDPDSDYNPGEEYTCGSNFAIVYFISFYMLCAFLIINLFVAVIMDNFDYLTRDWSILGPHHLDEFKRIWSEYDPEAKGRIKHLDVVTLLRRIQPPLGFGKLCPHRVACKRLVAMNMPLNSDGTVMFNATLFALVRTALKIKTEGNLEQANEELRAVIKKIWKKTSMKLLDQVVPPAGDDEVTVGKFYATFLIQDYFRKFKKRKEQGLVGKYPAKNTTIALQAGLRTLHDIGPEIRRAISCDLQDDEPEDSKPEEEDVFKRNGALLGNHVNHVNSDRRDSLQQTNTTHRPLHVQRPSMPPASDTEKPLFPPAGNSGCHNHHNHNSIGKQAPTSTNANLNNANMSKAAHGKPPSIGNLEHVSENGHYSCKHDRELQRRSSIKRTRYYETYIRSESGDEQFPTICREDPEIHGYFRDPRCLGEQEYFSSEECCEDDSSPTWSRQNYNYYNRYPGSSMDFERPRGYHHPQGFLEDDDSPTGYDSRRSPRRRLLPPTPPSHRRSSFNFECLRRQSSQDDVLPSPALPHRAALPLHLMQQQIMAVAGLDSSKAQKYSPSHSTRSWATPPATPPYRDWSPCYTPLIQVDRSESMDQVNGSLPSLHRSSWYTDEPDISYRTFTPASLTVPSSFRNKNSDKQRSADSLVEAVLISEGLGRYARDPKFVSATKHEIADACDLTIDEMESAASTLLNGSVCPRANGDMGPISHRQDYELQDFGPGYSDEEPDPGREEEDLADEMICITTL

shift of the current-membrane voltage relationship (voltage-dependent activation) of Cav1.3-LTCCs on co-transfection with RS1, HEK cells: -10 mV
B1: human RS1 (wild type) expressed in HEK cells (natural protein)
chain: STEDEGEDPWYQKACKCDCQGGPNALWSAGATSLDCIPECPYHKPLGFESGEVTPDQITCSNPEQYVGWYSSWTANKARLNSQGFGCAWLSKFQDSSQWLQIDLKEIKVISGILTQGRCDIDEWMTKYSVQYRTDERLNWIYYKDQTGNNRVFYGNSDRTSTVQNLLRPPIISRFIRLIPLGWHVRIAIRMELLECVSKCA
